Substitutions are numbered along the chain they refer to.
B1: 424 (protein)
chain: LDNGLARTPTMGWLHWERFMCNLDCQEEPDSCISEKLFMEMAERMVSEGWKDAGYEYLCIDDCWMAPQRDSEGRLQADPQRFPHGIRQLANYVHSKGLKLGIYADVGNKTCAGFPGSFGYYDIDAQTFADWGVDLLKFDGCYCDSLENLADGYKHMSLALNRTGRSIVYSCEWPLYMWPFQKPNYTEIRQYCNHWRNFADIDDSWKSIKSILDWTSRNQERIVDVAGPGGWNDPDMLVIGNFGLSWDQQVTQMAEWAIMAAPLFMSNDLRHISPQAKALLQDKDVIAINQDPLGKQGYQLRKGDNFEVWERPLSGDAWAVAIINRQEIGGPRSYTIPVASLGKGVACNPACFITQLLPVKRQLGFYNWTSRLKSHINPTGTVLLQLENTMQMSLKDLL
modifications: Synthetic Polypeptide sequence of Variant No. 424 of mature Human GLA
B2: 435 (protein)
chain: B1 chain with E255L, I258L
modifications: Synthetic Polypeptide sequence of Variant No. 435 of mature Human GLA
B3: 431 (protein)
chain: B1 chain with E255L, R270G
modifications: Synthetic Polypeptide sequence of Variant No. 431 of mature Human GLA
B4: 428 (protein)
chain: B1 chain with E255L, M259S
modifications: Synthetic Polypeptide sequence of Variant No. 428 of mature Human GLA
B5: 436 (protein)
chain: B1 chain with E255L, H271G
modifications: Synthetic Polypeptide sequence of Variant No. 436 of mature Human GLA
B6: 432 (protein)
chain: B1 chain with E255L
modifications: Synthetic Polypeptide sequence of Variant No. 432 of mature Human GLA
B7: 430 (protein)
chain: B1 chain with E255L, H271T
modifications: Synthetic Polypeptide sequence of Variant No. 430 of mature Human GLA
B8: 433 (protein)
chain: B1 chain with E255L, H271Q
modifications: Synthetic Polypeptide sequence of Variant No. 433 of mature Human GLA
B9: 429 (protein)
chain: B1 chain with E255C
modifications: Synthetic Polypeptide sequence of Variant No. 429 of mature Human GLA
B10: 425 (protein)
chain: B1 chain with E255L, H271E
modifications: Synthetic Polypeptide sequence of Variant No. 425 of mature Human GLA
B11: 364 (protein)
chain: B1 chain with M39H, E255L
modifications: Synthetic Polypeptide sequence of Variant No. 364 of mature Human GLA
B12: 437 (protein)
chain: B1 chain with E255L, L263E
modifications: Synthetic Polypeptide sequence of Variant No. 437 of mature Human GLA
B13: 427 (protein)
chain: B1 chain with E255L, L263G
modifications: Synthetic Polypeptide sequence of Variant No. 427 of mature Human GLA
B14: 426 (protein)
chain: B1 chain with E255L, M259E
modifications: Synthetic Polypeptide sequence of Variant No. 426 of mature Human GLA
B15: 365 (protein)
chain: B1 chain with S47N, E255L
modifications: Synthetic Polypeptide sequence of Variant No. 365 of mature Human GLA
B16: 434 (protein)
chain: B1 chain with E255L, R270D
modifications: Synthetic Polypeptide sequence of Variant No. 434 of mature Human GLA

Key:
Assay type in all cases: biochemical
[1] = HTP-analysis of supernatants pretreated with base (MUGal hydrolysis); conditions: activity of the variant/activity of Rd4BB (SEQ ID NO: 15); challenge at pH 9.65
Procedure, shortened: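 GLA variants were secreted by transformed INVSc1 yeast grown 66-84 h at 30° C. Supernatants were exposed to neutral-to-basic buffers (pH 7.0-9.7) at 37° C for 1-18 h, then assayed with MUGal in acidic citrate/McIlvaine buffer, with fluorescence read after quenching.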

[2] = HTP-analysis of yeast culture supernatants, no challenge (MUGal hydrolysis); conditions: activity of the variant/activity of Rd4BB (SEQ ID NO: 15)
Procedure, shortened: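 GLA variants expressed in yeast INVSc1, secreted into SD-Ura broth over 66-84 h at 30° C; clarified supernatants tested without challenge. Supernatant mixed with McIlvaine buffer pH 4.8 and 2 mM MUGal (citrate/KCl, pH 4.6), 37° C for 30-180 min, carbonate-quenched, fluorescence Ex 355/Em 448 nm.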

[3] = HTP-analysis of supernatants pretreated with acid (MUGal hydrolysis); conditions: activity of the variant/activity of Rd4BB (SEQ ID NO: 15); challenge at pH 3.7
Procedure, shortened: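 Yeast INVSc1 supernatant, GLA variants; acid challenge: McIlvaine pH 3.3-4.3, 37° C., 1-3 h. Assay: MUGal in McIlvaine pH 4.8 plus citrate pH 4.3, 37° C., 30-180 min, Na2CO3 stop, Ex 355/Em 448 nm.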

Molecule | Relative Activity of GLA Variants After Challenge at pH 9.65 [1] | Relative Activity of GLA Variants After No Challenge (NC) [2] | Relative Activity of GLA Variants After Challenge at pH 3.7 [3]
B1 | − (<0.5 relative activity over Rd4BB (SEQ ID NO: 15)) | + (0.5 to 1.5 relative activity over Rd4BB (SEQ ID NO: 15)) | + (0.5 to 1.5 relative activity over Rd4BB (SEQ ID NO: 15))
B2 | − (<0.5 relative activity over Rd4BB (SEQ ID NO: 15)) | + (0.5 to 1.5 relative activity over Rd4BB (SEQ ID NO: 15)) | ++ (>1.5 to 2.5 relative activity over Rd4BB (SEQ ID NO: 15))
B3 | − (<0.5 relative activity over Rd4BB (SEQ ID NO: 15)) | + (0.5 to 1.5 relative activity over Rd4BB (SEQ ID NO: 15)) | − (<0.5 relative activity over Rd4BB (SEQ ID NO: 15))
B4 | − (<0.5 relative activity over Rd4BB (SEQ ID NO: 15)) | + (0.5 to 1.5 relative activity over Rd4BB (SEQ ID NO: 15)) | + (0.5 to 1.5 relative activity over Rd4BB (SEQ ID NO: 15))
B5 | − (<0.5 relative activity over Rd4BB (SEQ ID NO: 15)) | + (0.5 to 1.5 relative activity over Rd4BB (SEQ ID NO: 15)) | − (<0.5 relative activity over Rd4BB (SEQ ID NO: 15))
B6 | + (0.5 to 1.5 relative activity over Rd4BB (SEQ ID NO: 15)) | + (0.5 to 1.5 relative activity over Rd4BB (SEQ ID NO: 15)) | − (<0.5 relative activity over Rd4BB (SEQ ID NO: 15))
B7 | + (0.5 to 1.5 relative activity over Rd4BB (SEQ ID NO: 15)) | + (0.5 to 1.5 relative activity over Rd4BB (SEQ ID NO: 15)) | − (<0.5 relative activity over Rd4BB (SEQ ID NO: 15))
B8 | + (0.5 to 1.5 relative activity over Rd4BB (SEQ ID NO: 15)) | + (0.5 to 1.5 relative activity over Rd4BB (SEQ ID NO: 15)) | + (0.5 to 1.5 relative activity over Rd4BB (SEQ ID NO: 15))
B9 | − (<0.5 relative activity over Rd4BB (SEQ ID NO: 15)) | + (0.5 to 1.5 relative activity over Rd4BB (SEQ ID NO: 15)) | + (0.5 to 1.5 relative activity over Rd4BB (SEQ ID NO: 15))
B10 | + (0.5 to 1.5 relative activity over Rd4BB (SEQ ID NO: 15)) | + (0.5 to 1.5 relative activity over Rd4BB (SEQ ID NO: 15)) | − (<0.5 relative activity over Rd4BB (SEQ ID NO: 15))
B11 | − (<0.5 relative activity over Rd4BB (SEQ ID NO: 15)) | + (0.5 to 1.5 relative activity over Rd4BB (SEQ ID NO: 15)) | + (0.5 to 1.5 relative activity over Rd4BB (SEQ ID NO: 15))
B12 | − (<0.5 relative activity over Rd4BB (SEQ ID NO: 15)) | + (0.5 to 1.5 relative activity over Rd4BB (SEQ ID NO: 15)) | + (0.5 to 1.5 relative activity over Rd4BB (SEQ ID NO: 15))
B13 | − (<0.5 relative activity over Rd4BB (SEQ ID NO: 15)) | + (0.5 to 1.5 relative activity over Rd4BB (SEQ ID NO: 15)) | − (<0.5 relative activity over Rd4BB (SEQ ID NO: 15))
B14 | − (<0.5 relative activity over Rd4BB (SEQ ID NO: 15)) | + (0.5 to 1.5 relative activity over Rd4BB (SEQ ID NO: 15)) | − (<0.5 relative activity over Rd4BB (SEQ ID NO: 15))
B15 | + (0.5 to 1.5 relative activity over Rd4BB (SEQ ID NO: 15)) | + (0.5 to 1.5 relative activity over Rd4BB (SEQ ID NO: 15)) | + (0.5 to 1.5 relative activity over Rd4BB (SEQ ID NO: 15))
B16 | − (<0.5 relative activity over Rd4BB (SEQ ID NO: 15)) | + (0.5 to 1.5 relative activity over Rd4BB (SEQ ID NO: 15)) | − (<0.5 relative activity over Rd4BB (SEQ ID NO: 15))

Reference: patent publication US11278600B2, “Human alpha-galactosidase variants” (Codexis, Inc., priority 2014, dated 2022)
